Data from patent US20220307010A1 (published 2022).

Kd (TIGIT55-13): 112 nM
Kd (TIGIT55-11): 327 nM
Kd (TIGIT55-08): 113 nM
Kd (TIGIT55-06): 153 nM
Kd (TIGIT55-14): 139 nM
Kd (TIGIT55-01): 15.9 nM
Kd (TIGIT55-05): 97.6 nM
B1: hTIGIT (receptor)
chain: MMTGTIETTGNISAEKGGSIILQCHLSSTTAQVTQVNWEQQDQLLAICNADLGWHISPSFKDRVAPGPGLGLTLQSLTVNDTGEYFCIYHTYPDGTYTGRIFLEVLESSVAEHGARFQIP
modifications: biotinylated antigen (site not given)
